The values that follow come from patent US20130108642A1 (LOS ANGELES BIOMEDICAL RESEARCH INSTITUTE AT HARBOR UCLA …, published 2013).

One experiment concerns the target T1, recombinant human Grp78 (human, UniProt P11021 19-654).
T1 construct: Soluble probe in the FAR Western blot, detected with anti-Grp78 Ab; also called rGrp78; Grp78p
As to the kind of experiment: FAR Western blot with recombinant human Grp78 and anti-Grp78 Ab; bands identified by MALDI-TOF-MS/MS.

Experiment [1] has as its target T2, endothelial cell surface GRP78 (human umbilical vein endothelial cells) (human, UniProt P11021 19-654).
T2 construct: whole, on cells; In the adherence and endocytosis assays it is on intact endothelial cells; also called endothelial cell GRP78; Glucose Regulated Protein 78
Put plainly: pull-down of biotin-labeled endothelial cell surface proteins by yeast cells, immunoblot with anti-GRP78 Ab.

T1 sequence (P11021 19-654 limits assumed): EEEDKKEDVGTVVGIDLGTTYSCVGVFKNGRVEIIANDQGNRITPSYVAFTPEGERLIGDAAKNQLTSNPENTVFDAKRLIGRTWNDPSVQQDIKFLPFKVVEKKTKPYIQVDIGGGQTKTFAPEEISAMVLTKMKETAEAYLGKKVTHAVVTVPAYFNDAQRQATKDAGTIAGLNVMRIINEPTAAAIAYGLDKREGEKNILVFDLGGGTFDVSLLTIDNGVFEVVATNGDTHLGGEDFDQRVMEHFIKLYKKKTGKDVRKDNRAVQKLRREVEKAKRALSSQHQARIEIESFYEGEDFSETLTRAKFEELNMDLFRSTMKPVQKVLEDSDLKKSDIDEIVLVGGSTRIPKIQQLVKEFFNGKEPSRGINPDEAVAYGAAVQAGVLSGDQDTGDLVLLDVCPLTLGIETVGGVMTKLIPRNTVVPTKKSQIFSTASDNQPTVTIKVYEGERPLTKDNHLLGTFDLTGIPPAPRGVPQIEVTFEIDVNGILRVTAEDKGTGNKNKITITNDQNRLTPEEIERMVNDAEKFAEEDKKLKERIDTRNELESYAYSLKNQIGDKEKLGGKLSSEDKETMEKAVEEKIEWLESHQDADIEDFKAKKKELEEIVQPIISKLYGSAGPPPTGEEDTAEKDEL
T2 sequence (P11021 19-654): as the sequence (P11021 19-654 limits assumed) above

B1: CotH2 (RO3G-08029), native protein in cell wall material from supernatants of R. oryzae germling protoplasts (other)
chain: ASVQFNLIAPSATDVKVSVNGQQVALTASDPNVPYFTGSAEVGGTEESFERSLAGITNSTFNDFYNRPVTYANLPQLPWPIENDPQWTRKGKKAEIFDDNYIPSVFFHGDDSQVQDLVKNVPKDKVTGTLTFIGSNYVHSFANVSFGIHGAGKKHNNAKQSWKWTLSGTDTMGNRNHFKLRHMEEDPTQIRERLYADILHAMGTYANETTMVRLFINGQGFGTFNMLDDITEFSYINAMFYGGNPPATLGPLFDGASGADFIYHPGNLDGYSSWKPNKDNANGEGYEAFDPLCKAWNETDYTDNTAIANFEKMFDTEHFLRFMVIEYLTAHWDGYWMGQTNDGAYRDPSDNNKWYFLDQDFDATFGVNLDVPENKDFISVSYKDFPSRYPAGVMANGLLQNADKKAKFEQYLTETVRVLFNNVTLTNRVLAIHNFLSPDLEWDRSIVQQSPGTNFGWTFEQTSQNLWQGVSAPNNNGGGAEWGLVEYIAAKSQAMAKEFNITIVSEPVGPPAANGTATSTNDGGNTHTAAGESKPASSSESSGSKIASQSVS
notes: Protein on the FAR Western blot, identified by MALDI-TOF-MS/MS of excised bands; also called R. oryzae ligand; R. oryzae surface protein
With B1, the binding result with recombinant human Grp78 is recorded as “binds”.

B2: CotH1 (RO3G-05018) from R. oryzae, on the cell surface of S. cerevisiae (other)
chain: AKVSFKVIAPDAKNRVHVNINGVLVELKASDPDVPYYTGFAELKHGQSYNYVVDGNAEPFKRLLNGSSTKNEFFNRPVTYATNIPELPSILTEGSWTRGDTSNPIWDSNYVPSIFVTGNPREMNELIENVKKNTYKTKITFIGPETINTFEGCTLGLHKPGRKHNDAKQSWIWALPEGQFMANRNWFKIRHMEEDPTQLREKLYADILRKMGTYANEANMVRFFINKEGMGIFNMLDDVIMYSYINAMFYHGDTPEQLGGLYDGASGASFNFPGDFDSFIPNVESPLDQDAIEPFSKAFTSIDFLEDEQVKTIGKYFDYDQFLRFMVMEFLTGDWDGYWQEQTNDGAYIDINDHNKIYYLGQDFDATFGVNLEQKREFVNVSYTEYPKLFPGGVLINRLLQNPGVKKTFENYLKITVQEIFNNATLGPYVTARHEFLAPDLQWDRSIKQRSPGNIFGWTFEQTYENLFEGVTAPGKNSGGADWGLLEWVAAKEKAVKSYLSSSEAADAATVTQVPEAPGTDGTPSESTAWPHANTRFRQAEASNTHKIGTSSPSNFIVKIKQGTVSS
notes: also called S. cerevisiae expressing CotH1
As to B2, the binding result in experiment [1] is given as “no binding”.

B3: CotH3 (RO3G-11882), native protein in cell wall material from supernatants of R. oryzae germling protoplasts (other)
chain: ASIKFNVIAPNATDVKVSVNGQQVTLTASDANVPYFTGSAEVGASKTYKYVAGGTEESFDRSLDGITNSTLNDFYNRPVTYANLPQLPWPIEKDPQWTRSGSKADIFDDNYIPSVFFHGDDSQVQNVVKNVPADRISGTLTFIGSNYVYSFQNVSFGIHGAGKKHNNAKQSWNWILSGSDTMGNRNFFKLRHMEEDPTQIRERLYSDILHAMGTYANDATMVRLFINNQGFGTFNMLDDITQFSYINAKFYNGKPPATLGPLYDGASGADFLYHPGNLDGYSSWVANTANPNGEAYEALDPLCKAWNETTYTDNTAIANFEKMFDLDRFMRFMVIEYLTADWDGYWMGQTNDGAYRDPTDNNKWYFLDQDFDGTFGVNLAAPEGNAFLDVSYKDFPSRYPGAVMINNLLQNADKKATFEKYLTETVRVLFNNVTLTNRVLALHNFLLPDLEWDRSIVQQSPGINFGWTFDQVTQNLWQGVTAPNNNGGGAAFGLVEYIAAKAQAVAKEFNISIVSQPVGPPSANGTTAAAPAPAAGNSTGKGGNQSISSSASSNKTSAQSTS
notes: as for B1
For the molecule B3, in the experiment with recombinant human Grp78, the binding result is “binds”.
